Measured values from PMC4623018, “Studies on the catalytic domains of multiple JmjC oxygenases using peptide substrates” (Epigenetics, 2014).
Ends that are not written are not given here. Me3 = trimethyl on the lysine side-chain amine

Target: T1, KDM4A catalytic domain (human, UniProt O75164 1-359)
T1 construct: The limits 1-359 are those of the KDM4A catalytic domain used in the activity assays; also called KDM4A (1–359); 4A(1–359); source: E. coli, purified as previously described
T1 sequence (looked up): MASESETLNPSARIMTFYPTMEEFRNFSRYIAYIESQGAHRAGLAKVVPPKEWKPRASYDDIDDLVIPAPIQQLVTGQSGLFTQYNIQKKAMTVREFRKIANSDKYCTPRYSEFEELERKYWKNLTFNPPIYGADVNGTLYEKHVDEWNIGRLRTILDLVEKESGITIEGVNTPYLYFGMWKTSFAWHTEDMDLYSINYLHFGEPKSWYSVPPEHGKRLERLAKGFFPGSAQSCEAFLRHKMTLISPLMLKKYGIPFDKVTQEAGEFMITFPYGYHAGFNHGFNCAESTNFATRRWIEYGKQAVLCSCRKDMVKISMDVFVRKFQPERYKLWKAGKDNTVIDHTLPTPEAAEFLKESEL
Assay: crystal structure; KDM4A catalytic domain complexed with H3K27me3 peptides (25 residue and 5 residue)
Details: both partners purified

- binding result: binds
B1: 5 residue H3K27me3 peptide (peptide, UniProt P68431 26-30, looked up)
peptide: ARK(Me3)SA
notes: histone H3 fragment, residues 25-29; also called H3(25–29)K27me3
